Results taken from patent US20210206856A1 (PANDION OPERATIONS, published 2021).

T1: human MAdCAM expressed on cells (human, UniProt Q13477 19-382)
T1 construct: whole, on cells; also called MADCAM1
T1 sequence (looked up): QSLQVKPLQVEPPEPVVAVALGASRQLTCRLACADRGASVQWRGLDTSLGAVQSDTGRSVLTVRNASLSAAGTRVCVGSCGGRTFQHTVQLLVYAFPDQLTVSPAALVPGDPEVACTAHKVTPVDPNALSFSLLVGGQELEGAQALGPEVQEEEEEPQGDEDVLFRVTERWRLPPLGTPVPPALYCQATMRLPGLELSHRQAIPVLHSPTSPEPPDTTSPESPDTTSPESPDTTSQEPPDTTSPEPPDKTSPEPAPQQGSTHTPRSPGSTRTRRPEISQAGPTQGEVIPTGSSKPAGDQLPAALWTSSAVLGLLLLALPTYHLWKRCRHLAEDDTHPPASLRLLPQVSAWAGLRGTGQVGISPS

T2: mouse MAdCAM expressed on cells (mouse, UniProt Q61826 22-405)
T2 construct: whole, on cells
T2 sequence (looked up): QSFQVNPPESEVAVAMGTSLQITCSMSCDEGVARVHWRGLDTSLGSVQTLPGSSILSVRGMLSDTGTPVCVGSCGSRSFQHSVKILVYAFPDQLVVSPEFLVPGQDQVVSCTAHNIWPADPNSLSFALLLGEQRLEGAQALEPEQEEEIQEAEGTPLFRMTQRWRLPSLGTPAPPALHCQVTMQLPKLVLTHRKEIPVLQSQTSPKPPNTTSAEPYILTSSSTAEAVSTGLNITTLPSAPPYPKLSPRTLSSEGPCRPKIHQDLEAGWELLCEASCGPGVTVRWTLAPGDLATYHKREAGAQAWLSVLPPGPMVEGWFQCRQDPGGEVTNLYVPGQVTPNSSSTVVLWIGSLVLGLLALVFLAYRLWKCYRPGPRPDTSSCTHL


What was measured:
[1] = target: T1, human MAdCAM expressed on cells; test: cell binding
[2] = target: T2, mouse MAdCAM expressed on cells; test: cell binding

binding result [1] | binding result [2] | Binder
binds | no binding | MAdCAM Antibody Table 1 Clone 12 (scFv) scFv: QVQLVQSGAEVKKPGASVKVSCKASGYTFTGYYMHWVRQAPGQGLEWMGWIGPNSGDTNYAQKFQGRVTMTRDTSTSTVYMELSSLRSEDTAVYYCARDLDHNWYFDLWGRGTLVTVSSGGGGSGGGGSGGGGSGGGGSDIVMTQSPLSLPVTPGEPASISCRSSQSLLHSNGYNYLDWYLQKPGQSPQLLIYSSSNRAPGVPDRFSGSGSGTDFTLKISRVEAEDVGVYYCMQALHIPLTFGGGTKVEIK
binds |  | MAdCAM Antibody Table 1 Clone 1 (scFv) scFv: EVQLLESGGGLVQPGGSLRLSCAASGFTFSSYGMHWVRQAPGKGLEWVAVISDDGSDKYYADSVKGRFTISRDNSKNTLYLQMNSLRAEDTAVYYCTTSKYYYYYGMDVWGQGTTVTVSSGGGGSGGGGSGGGGSGGGGSDIQMTQSPSSLSASVGDRVTITCQASQDISKSLNWYQQKPGKAPKLLIYAASSLQSGVPSRFSGSGSGTDFTLTISSLQPEDFATYYCQQGYSTPLTFGGGTKVEIK
binds | no binding | MAdCAM Antibody Table 1 Clone 10 (scFv) scFv: QVQLVQSGAEVKKPGASVKVSCKASGYTLTTWYMYWVRQAPGQGLEWMGWINPNRGATNYAQKFQGRVTMTRDTSTSTVYMELSSLRSEDTAVYYCAKGDLWGAMDVWGQGTLVTVSSGGGGSGGGGSGGGGSGGGGSDIQMTQSPSSLSASVGDRVTITCRASDNIGSWLAWYQQKPGKAPKLLIYAASSLQSGVPSRFSGSGSGTDFTLTISSLQPEDFATYYCQQGYSTPPTFGQGTKVEIK
binds | no binding | MAdCAM Antibody Table 1 Clone 26 (scFv) scFv: QVQLVQSGAEVKKPGASVKVSCKASGYTLTTWYMYWVRQAPGQGLEWMGWINPNRGATNYAQKFQGRVTMTRDTSTSTVYMELSSLRSEDTAVYYCAKGDLWGAMDVWGQGTTVTVSSGGGGSGGGGSGGGGSGGGGSDIQMTQSPSSLSASVGDRVTITCRASDNIGSWLAWYQQKPGKAPKLLIYAASSLQSGVPSRFSGSGSGTDFTLTISSLQPEDFATYYCQQGYSTPPTFGQGTKVEIK
binds | no binding | MAdCAM Antibody Table 1 Clone 27 (scFv) scFv: QVQLVQSGAEVKKPGASVKVSCKASGYTFTGYYIHWVRQAPGQGLEWMGWMNPNSGNTGYAQKFQGRVTMTRDTSTSTVYMELSSLRSEDTAVYYCARDPGFLGYCSGGSCYDGWFDPWGQGTLVTVSSGGGGSGGGGSGGGGSGGGGSDIQMTQSPSSLSASVGDRVTITCRASQSISSYLHWYQQKPGKAPKLLIYAASSLQSGVPSRFSGSGSGTDFTLTISSLQPEDFATYYCQQSYTAPYTFGQGTKLEIK
binds | no binding | MAdCAM Antibody Table 1 Clone 14 (scFv) scFv: QVQLVQSGAEVKKPGSSVKVSCKASGYTFTDYHIHWVRQAPGQGLEWMGGIVPRSGSTTYAQKFQGRVTITADESTSTAYMELSSLRSEDTAVYYCAKDESSGWYYFDYWGQGTLVTVSSGGGGSGGGGSGGGGSGGGGSDIVMTQSPLSLPVTPGEPASISCRSSQSLLHSNGYNYLDWYLQKPGQSPQLLIYSAYNRASGVPDRFSGSGSGTDFTLKISRVEAEDVGVYYCMQALQTPLTFGQGTKVEIK
binds | no binding | MAdCAM Antibody Table 1 Clone 13 (scFv) scFv: EVQLLESGGGLVQPGGSLRLSCAASGFTFDDYAMHWVRQAPGKGLEWVSYIDASGTTIYYADSVKGRFTISRDNSKNTLYLQMNSLRAEDTAVYYCAKDQAAAGYWYFDLWGRGTLVTVSSGGGGSGGGGSGGGGSGGGGSDIQMTQSPSSLSASVGDRVTITCQASQDISNYLNWYQQKPGKAPKLLIYKASTLESGVPSRFSGSGSGTDFTLTISSLQPEDFATYYCQQSYSTPITFGQGTRLEIK
binds | no binding | MAdCAM Antibody Table 1 Clone 29 (scFv) scFv: QVQLVQSGAEVKKPGASVKVSCKASGYTFTSYYMHWVRQAPGQGLEWMAWMNPNSGNTGYAQKFQGRVTMTRDTSTSTVYMELSSLRSEDTAVYYCARDYDFWSGSLGYWGQGTLVTVSSGGGGSGGGGSGGGGSGGGGSDIQMTQSPSSLSASVGDRVTITCRASQGISNYLAWYQQKPGKAPKLLIYAASSLQSGVPSRFSGSGSGTDFTLTISSLQPEDFATYYCQQSYSTPWTFGQGTKVEIK
binds | no binding | MAdCAM Antibody Table 1 Clone 17 (scFv) scFv: EVQLLESGGGLVQPGGSLRLSCAASGFTFSDSAMHWVRQAPGKGLEWVSAISGSGSTIYYADSVKGRFTISRDNSKNTLYLQMNSLRAEDTAVYYCVSDIAVAGHWYFDLWGRGTLVTVSSGGGGSGGGGSGGGGSGGGGSDIQMTQSPSSLSASVGDRVTITCRASQSISTFLNWYQQKPGKAPKLLIYAASRLEGGVPSRFSGSGSGTDFTLTISSLQPEDFATYYCQQANSFPLTFGPGTKVDIK
binds | no binding | MAdCAM Antibody Table 1 Clone 28 (scFv) scFv: QVQLVQSGAEVKKPGASVKVSCKASGYTFTDYFLHWVRQAPGQGLEWMGWMNPTSGNTGYAQKFQGRVTMTRDTSTSTVYMELSSLRSEDTAVYYCAREGEGSGFDYWGQGTLVTVSSGGGGSGGGGSGGGGSGGGGSDIQMTQSPSSLSASVGDRVTITCRASQGINSWLAWYQQKPGKAPKLLIYDASNLETGVPSRFSGSGSGTDFTLTISSLQPEDFATYYCQQSYSTPLTFGGGTKVEIK
binds | no binding | MAdCAM Antibody Table 1 Clone 21 (scFv) scFv: EVQLLESGGGLVQPGGSLRLSCAASGFTFSNAWMSWVRQAPGKGLEWVSTIVGNGGATYYADSVKGRFTISRDNSKNTLYLQMNSLRAEDTAVYYCARDNPLRWQGMDVWGQGTLVTVSSGGGGSGGGGSGGGGSGGGGSDIQMTQSPSSLSASVGDRVTITCRASQDISNYLNWYQQKPGKAPKLLIYAASSLQSGVPSRFSGSGSGTDFTLTISSLQPEDFATYYCQQSYSIPPTFGPGTKVDIK
binds | no binding | MAdCAM Antibody Table 1 Clone 16 (scFv) scFv: EVQLLESGGGLVQPGGSLRLSCAASGFTFEDYAMHWVRQAPGKGLEWVSYLNSDGGSTSYADSVKGRFTISRDNSKNTLYLQMNSLRAEDTAVYYCAKDYCTNGVCAFDYWGQGTLVTVSSGGGGSGGGGSGGGGSGGGGSDIQMTQSPSSLSASVGDRVTITCRASQSISTYLNWYQQKPGKAPKLLIYDASNLETGVPSRFSGSGSGTDFTLTISSLQPEDFATYYCQQSYTIPITFGQGTRLEIK
binds | no binding | MAdCAM Antibody Table 1 Clone 15 (scFv) scFv: QVQLVQSGAEVKKPGSSVKVSCKASGYTFTNYYMHWVRQAPGQGLEWMGGIIPIVDRVKYAQKFQGRVTITADESTSTAYMELSSLRSEDTAVYYCAKGRYTVNYYYGMDVWGQGTTVTVSSGGGGSGGGGSGGGGSGGGGSDIQMTQSPSSLSASVGDRVTITCQANQDISNYLNWYQQKPGKAPKLLIYRASKLEAGVPSRFSGSGSGTDFTLTISSLQPEDFATYYCQQSSEIPYSFGQGTKLEIK
 | no binding | MAdCAM Antibody Table 1 Clone 8 (scFv) scFv: EVQLLESGGGLVQPGGSLRLSCAASGFMFGDYAMHWVRQAPGKGLEWVSAISGSGGSTYYADSVKGRFTISRDNSKNTLYLQMNSLRAEDTAVYYCAKDLVVAGIWYFDLWGRGTLVTVSSGGGGSGGGGSGGGGSGGGGSDIQMTQSPSSLSASVGDRVTITCRASQGISNNLNWYQQKPGKAPKLLIYDASSLESGVPSRFSGSGSGTDFTLTISSLQPEDFATYYCQQTHSFPSTFGQGTKLEIK
